In paper PMC3935999, “Post-Translational Modifications Modulate Ligand Recognition by the Third PDZ Domain of the MAGUK Protein PSD-95” (PLoS ONE, 2014):

Columns and labels:
[1] = target: KKETAV hexapeptide (optimised consensus C-terminal ligand of PSD-95 PDZ3); assay: ITC (MicroCal ITC-200); settings: pH 7.5, 25 °C, no added salt stated (50 mM potassium phosphate only)
[2] = target: KKETAV hexapeptide (optimised consensus C-terminal ligand of PSD-95 PDZ3); assay: ITC (quoted from ref. 19, Saro et al. 2007); settings: pH 6.0, 25 °C, 10 mM NaCl, 20 mM MES; cited from earlier work
[3] = target: CRIPT (Homo sapiens); assay: ITC; settings: cited from earlier work
[4] = target: CRIPT (Homo sapiens); assay: ITC; settings: cited from earlier work; remark: listed apart in the source
[5] = target: CRIPT (Homo sapiens); assay: ITC; settings: cited from earlier work; remark: listed apart in the source
[6] = target: KKETAV peptide; assay: ITC; settings: cited from earlier work
[7] = target: T1, PDZ3 domain of PSD-95 (wild type, residues 302-403) (UniProt P31016 302-403); assay: ITC; KKETAV (900 µM; 3 mM for D332P-PDZ3) injected into the protein in the cell (70 µM; 200 µM for D332P-PDZ3); 25°C; 50 mM potassium phosphate pH 7.5; single set of identical sites model; settings: both partners purified
T1 construct: Postsynaptic density protein-95 (PSD-95; SAP-90; DLG-4), third PDZ domain with the α3 helix, residues 302-403 of the full PSD-95 protein; PDB 1BE9 is a longer construct of the same domain; 15N-labelled for NMR; also called PSD-95-PDZ3; WT-PDZ3; source: E. coli BL21/DE3, purified
T1 sequence (P31016 302-403): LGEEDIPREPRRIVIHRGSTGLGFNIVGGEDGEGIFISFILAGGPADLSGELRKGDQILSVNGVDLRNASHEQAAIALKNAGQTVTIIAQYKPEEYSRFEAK

[8] = target: T2, Δ10ct-PDZ3 (PSD-95 residues 302-393, without the α3 helix) (UniProt P31016 302-393); assay: as above; settings: both partners purified
T2 construct: PSD-95 third PDZ domain truncated of its ten C-terminal residues (α3 helix), residues 302-393 of the full PSD-95 protein; 15N-labelled for NMR; source: E. coli BL21/DE3, purified
T2 sequence (P31016 302-393, stated change not applied): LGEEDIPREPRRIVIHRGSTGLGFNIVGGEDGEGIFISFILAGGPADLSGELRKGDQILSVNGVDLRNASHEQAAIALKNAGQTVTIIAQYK

## PSD-95 (DLG4/SAP-90) third PDZ domain, PDZ3, wild type
[1]
  ΔG: -8 kcal/mol
[2]
  Kd: 450 nM
  ΔG: -8.7 kcal/mol

## PSD-95 PDZ3 (from UniProt P78352)
[3]
  Kd: 3600 nM
[4]
  Kd: 1000 nM
[5]
  Kd: 14000 nM
[6]
  Kd: 450 nM

B1: KKETAV hexapeptide (peptide)
peptide: KKETAV
notes: residues numbered from 0 (C-terminal Val) to -5 (N-terminal Lys); also called KKETAV ligand; consensus hexapeptide; source: bought: Peptide 2.0 (USA)
[7]
  stoichiometry N: 0.99
[8]
  Kd: 3600 nM
  dH: -8.8 kcal/mol
  stoichiometry N: 0.9
